According to patent US11535650 (RA PHARMACEUTICALS, dated 2022):
Starred links: 1 amine or outer side, 2 acyl side, 3 side chain; linkers in the order of their positions; H or OH if unused. Positions of bridges follow the written chain, without caps; N, C: chain ends. Non-standard residues stand in square brackets, D forms with d. Primed or numbered codes have the meaning given here. No end group written: not given here. *: point of attachment. Lys‑C8 = N-ε-caprylic lysine, CCCCCCCC(=O)NCCCC[C@H](N[*:1])C(=O)[*:2]; mXylyl(3) = bridging moiety between the two residues given in brackets; mXylyl″ = bridging moiety between the two marked residues; mXylyl = bridging moiety between residues (mXylyl(i,j)); Ala(1H-tetrazol-5-yl) = N[C@@H](Cc1nnn[nH]1)C(=O)O; Trp(7-aza) = N[C@@H](Cc1c[nH]c2ncccc12)C(=O)O; Phe(3-Cl) = N[C@@H](Cc1cccc(Cl)c1)C(=O)O; NMeD = CN[C@@H](CC(=O)O)C(=O)O; dPhg = N[C@@H](C(=O)O)c1ccccc1; Chg = N[C@H](C(=O)O)C1CCCCC1; Phg = N[C@H](C(=O)O)c1ccccc1; Tle = CC(C)(C)[C@H](N)C(=O)O; Lys‑C12 = N-ε-lauryl lysine; NMeS = CN[C@@H](CO)C(=O)O; Heptanoyl = CCCCCCC(=O)*; Pra = C#CC[C@H](N)C(=O)O; Nva = CCC[C@H](N)C(=O)O; Sar = CNCC(=O)O

B1: R3136 (peptide)
peptide: Heptanoyl-[Nva]C[dPhg]T[Trp(7-aza)]EY[NMeS]AC[Nva]-NH2
modifications: linker 2-10 via mXylyl″; not fully specified; printed as [mXylyl(2,10)]heptanoyl-Nvl-C-(D-Phg)-T-azaTrp-E-Y-(N-Me)S-A-C-Nvl-NH2
B2: R3001 (peptide)
peptide: Ac-[Nva]CYEN[Tle]Y[Trp(7-aza)]EY[Sar][Nva][NMeS]-NH2
SMILES: CCC[C@H](NC(C)=O)C(=O)N[C@@H](CS)C(=O)N[C@@H](Cc1ccc(O)cc1)C(=O)N[C@@H](CCC(=O)O)C(=O)N[C@@H](CC(N)=O)C(=O)N[C@H](C(=O)N[C@@H](Cc1ccc(O)cc1)C(=O)N[C@@H](Cc1c[nH]c2ncccc12)C(=O)N[C@@H](CCC(=O)O)C(=O)N[C@@H](Cc1ccc(O)cc1)C(=O)N(C)CC(=O)N[C@@H](CCC)C(=O)N(C)[C@@H](CO)C(N)=O)C(C)(C)C
B3: R3137 (peptide)
peptide: Heptanoyl-C[dPhg]T[Trp(7-aza)]EY[NMeS]AC[Nva]-NH2
modifications: linker 1-9 via mXylyl″; not fully specified; printed as [mXylyl(1,9)]heptanoyl-C-(D-Phg)-T-azaTrp-E-Y-(N-Me)S-A-C-Nvl-NH2
B4: R3028 (peptide)
peptide: Ac-[Tle]Y[Trp(7-aza)]EYP[Phg][Nva]-NH2
SMILES: CCC[C@H](NC(=O)[C@@H](NC(=O)[C@@H]1CCCN1C(=O)[C@H](Cc1ccc(O)cc1)NC(=O)[C@H](CCC(=O)O)NC(=O)[C@H](Cc1c[nH]c2ncccc12)NC(=O)[C@H](Cc1ccc(O)cc1)NC(=O)[C@@H](NC(C)=O)C(C)(C)C)c1ccccc1)C(N)=O

Target: human C5 protein (human, UniProt P01031 19-673; P01031 678-1676)
Experiment: cell-based or functional assay

Binder	Avg. IC50, human hemolysis assay (complete human sera) [nM]
Ac-C[Tle]ERFCD[Tle]YWEF-NH2 (linker 1-6 via mXylyl″) [R3139]	97.2
Ac-CAERFCD[Tle]YWEYP[Phg][Nva]-NH2 (linker 1-6 via mXylyl″) [R3148]	8.5
Ac-C[Phg]T[Trp(7-aza)]EY[NMeS]HC-NH2 (linker 1-9 via mXylyl) [R3015]	> 3960
Ac-CVERACD[Tle]Y[Trp(7-aza)]EYP[dPhg][Nva]-NH2 (linker 1-6 via mXylyl″) [R3156]	> 10000
Ac-[Nva]C[Phg]T[Trp(7-aza)]E[Phe(3-Cl)][NMeS]AC[Nva]-NH2 (linker 2-10 via mXylyl″) [R3134]	> 5000
Ac-CVERFCDVYWEF[Pra]-NH2 (linker 1-6 via mXylyl″) [R3147]	138
B1	> 50000
Ac-[Nva]CYEN[Tle]Y[Trp(7-aza)]EYP[Phg][Nva]C-NH2 (linker 2-14 via mXylyl) [R3019]	1320
Ac-C[Tle]Y[Trp(7-aza)]EY[NMeS]HC-NH2 (linker 1-9 via mXylyl) [R3016]	> 13000
Ac-CVERFCD[Tle]YWEF-NH2 (linker 1-6 via mXylyl″) [R3138]	87.2
Ac-CVERFCDVYWEFP-NH2 (linker 1-6 via mXylyl″) [R3141]	24.5
Ac-CAERFCD[Tle]YWEYP[dPhg][Nva]-NH2 (linker 1-6 via mXylyl″) [R3149]	13.6
Ac-CAERFCD[Tle]Y[Trp(7-aza)]EYP[Phg][Lys‑C12]-NH2 (linker 1-6 via mXylyl″) [R3164]	36
Ac-CVERFCDVYWEYP-NH2 (linker 1-6 via mXylyl″) [R3140]	17.9
Ac-CVARFCD[Tle]Y[Trp(7-aza)]EYP[dPhg][Nva]-NH2 (linker 1-6 via mXylyl″) [R3151]	165
Ac-CVERFC[Ala(1H-tetrazol-5-yl)][Tle]Y[Trp(7-aza)]EYP[Chg][Nva]-NH2 (linker 1-6 via mXylyl(3)) [R3168]	7.5
MCSERYCEVRWEY-NH2 (linker 2-7 via mXylyl) [R3020]	24.6
Ac-CVERFCA[Tle]Y[Trp(7-aza)]EYP[dPhg][Nva]-NH2 (linker 1-6 via mXylyl″) [R3158]	327
Ac-[Nva]C[Phg]T[Trp(7-aza)]EY[NMeS][dA]C[Nva]-NH2 (linker 2-10 via mXylyl″) [R3135]	> 25000
B2	67.2

Binder	Avg. IC50, human hemolysis assay (complete human sera) [nM]
Ac-CVERFCDVY[Trp(7-aza)]EYP-NH2 (linker 1-6 via mXylyl″) [R3142]	44.6
CVERFCDGYWEYP ([mXylyl(1,6)]Ac-C-V-E-R-F-C-D-Tbg-Y-W-E-Y-P-NH2) [R3143]	18.6
Ac-CVERACD[Tle]Y[Trp(7-aza)]EYP[Phg][Nva]-NH2 (linker 1-6 via mXylyl″) [R3155]	1530
B3	> 100000
Ac-CAERFCD[Tle]Y[Trp(7-aza)]EYP[Phg][Lys‑C8]-NH2 (linker 1-6 via mXylyl″) [R3166]	17.5
Ac-CVERFCA[Tle]Y[Trp(7-aza)]EYP[Phg][Nva]-NH2 (linker 1-6 via mXylyl″) [R3157]	84.5
Ac-C[Tle]ERFCDVYWEF-NH2 (linker 1-6 via mXylyl″) [R3146]	107
Ac-[Nva]C[Phg]T[Trp(7-aza)]EY[NMeS]HC-NH2 (linker 2-10 via mXylyl) [R3013]	344
Ac-[Nva]CYEN[Tle]YCEYP[Phg][Nva]-NH2 (linker 2-8 via mXylyl) [R3017]	> 100000
Ac-CAERFCD[Tle]Y[Trp(7-aza)]EYP[dPhg]K-NH2 (linker 1-6 via mXylyl″) [R3162]	16.5
Ac-[Nva]C[Phg][dA][Trp(7-aza)]EY[NMeS]HC[Nva]-NH2 (linker 2-10 via mXylyl″) [R3133]	> 75000
Ac-[Nva]C[Phg]T[Trp(7-aza)]EY[NMeS]HC[Nva]P[Nva]-NH2 (cysteine pairing not given here) [R3022]	> 10200
B4	> 10000
Ac-[Nva]CYEN[Tle]Y[Trp(7-aza)]ECP[Phg][Nva]-NH2 (linker 2-10 via mXylyl) [R3018]	> 5730
Ac-CAERFCD[Tle]Y[Trp(7-aza)]EYP[Phg]K-NH2 (linker 1-6 via mXylyl″) [R3161]	7
Ac-[Nva]C[Phg]T[dW]EY[NMeS]HC[Nva]-NH2 (linker 2-10 via mXylyl″) [R3132]	> 100000
Ac-CVARFCD[Tle]Y[Trp(7-aza)]EYP[Phg][Nva]-NH2 (linker 1-6 via mXylyl″) [R3150]	32
Ac-CVERFC[NMeD][Tle]Y[Trp(7-aza)]EYP[Chg][Nva]-NH2 (linker 1-6 via mXylyl″) [R3172]	12
Ac-CVEAFCD[Tle]Y[Trp(7-aza)]EYP[Phg][Nva]-NH2 (linker 1-6 via mXylyl″) [R3153]	175
Ac-CVEAFCD[Tle]Y[Trp(7-aza)]EYP[dPhg][Nva]-NH2 (linker 1-6 via mXylyl″) [R3154]	592
